From patent publication US20180057604A1 (Genentech, published 2018)
Read-outs that look alike come from different tables or passages of the source. One block for each binder: values may come before it.

Assays:
[1] = molecular target: T1, human BACE1 ECD; assay: Octet, pH 7.5;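 also: antibodies captured on anti-human capture biosensor tips, dissociation followed in PBS with BSA buffer, kinetics fitted with a one-to-one binding model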
T1 construct: analyte of the Octet assay (200 nM) and enzyme of the first short substrate assay; also called human BACE1 extracellular domain
T1 sequence (single chain, as listed by the source limits assumed): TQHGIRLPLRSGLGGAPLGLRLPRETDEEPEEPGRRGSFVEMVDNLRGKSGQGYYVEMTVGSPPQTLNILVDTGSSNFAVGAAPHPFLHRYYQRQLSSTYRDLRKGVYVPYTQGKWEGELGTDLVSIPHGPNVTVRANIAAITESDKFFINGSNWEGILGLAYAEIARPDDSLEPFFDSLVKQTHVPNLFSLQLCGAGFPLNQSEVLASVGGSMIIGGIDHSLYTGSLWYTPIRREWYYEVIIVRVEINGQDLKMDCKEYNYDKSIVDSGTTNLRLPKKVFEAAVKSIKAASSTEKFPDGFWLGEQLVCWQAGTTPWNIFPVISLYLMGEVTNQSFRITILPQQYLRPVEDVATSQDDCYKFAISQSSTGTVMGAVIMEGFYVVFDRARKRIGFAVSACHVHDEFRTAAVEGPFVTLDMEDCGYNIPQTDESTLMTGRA

[2] = molecular target: T2, murine BACE1 ECD; assay: Octet, pH 7.5;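 also: antibodies captured on anti-human capture biosensor tips, dissociation followed in PBS with BSA buffer, kinetics fitted with a one-to-one binding model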
T2 construct: analyte of the Octet assay (200 nM) and enzyme of the first short substrate assay
T2 sequence (single chain, as listed by the source limits assumed): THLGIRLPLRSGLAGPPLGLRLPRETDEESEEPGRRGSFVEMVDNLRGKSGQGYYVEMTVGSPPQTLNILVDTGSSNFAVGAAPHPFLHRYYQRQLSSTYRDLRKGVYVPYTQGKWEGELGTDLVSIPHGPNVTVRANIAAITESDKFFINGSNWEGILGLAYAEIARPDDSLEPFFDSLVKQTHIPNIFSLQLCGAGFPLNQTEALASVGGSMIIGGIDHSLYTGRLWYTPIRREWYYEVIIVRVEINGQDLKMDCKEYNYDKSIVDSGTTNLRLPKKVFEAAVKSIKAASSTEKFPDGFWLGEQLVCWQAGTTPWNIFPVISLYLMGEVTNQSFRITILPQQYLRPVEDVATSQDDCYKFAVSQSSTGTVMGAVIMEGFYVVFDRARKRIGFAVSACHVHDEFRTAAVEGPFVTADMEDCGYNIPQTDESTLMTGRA

[3] = molecular target: T3, BACE1 in primary mouse cortical neurons (mouse, UniProt P56818 46-501); assay: cell-based or functional assay
T3 sequence (P56818 46-501): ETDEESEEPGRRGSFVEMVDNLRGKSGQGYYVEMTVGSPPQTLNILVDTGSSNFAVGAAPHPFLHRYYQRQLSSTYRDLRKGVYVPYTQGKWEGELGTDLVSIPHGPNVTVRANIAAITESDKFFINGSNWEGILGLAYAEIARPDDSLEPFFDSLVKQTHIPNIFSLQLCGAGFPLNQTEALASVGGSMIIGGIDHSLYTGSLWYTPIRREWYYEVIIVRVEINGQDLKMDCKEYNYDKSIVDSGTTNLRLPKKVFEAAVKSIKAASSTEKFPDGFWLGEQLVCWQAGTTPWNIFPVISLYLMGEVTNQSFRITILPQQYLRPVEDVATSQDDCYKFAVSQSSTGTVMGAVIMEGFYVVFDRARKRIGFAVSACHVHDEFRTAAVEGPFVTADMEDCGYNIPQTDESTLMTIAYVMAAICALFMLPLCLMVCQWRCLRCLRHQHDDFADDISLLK

[4] = molecular target: T1, human BACE1 ECD; assay: Octet, pH 5.0
[5] = molecular target: T2, murine BACE1 ECD; assay: Octet, pH 5.0
[6] = molecular target: T4, human TfR extracellular domain with N-terminal His tag (human, UniProt P02786 89-760); assay: ELISA, IgG;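 also: ELISA of IgG-containing supernatants tested in 1:5 serial dilutions for 1 h, bound antibody read out with HRP anti-kappa antibody and TMB substrate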
T4 construct: Biotinylated in some assays; also called huTfR; HuTfR
T4 sequence (P02786 89-760 G142S): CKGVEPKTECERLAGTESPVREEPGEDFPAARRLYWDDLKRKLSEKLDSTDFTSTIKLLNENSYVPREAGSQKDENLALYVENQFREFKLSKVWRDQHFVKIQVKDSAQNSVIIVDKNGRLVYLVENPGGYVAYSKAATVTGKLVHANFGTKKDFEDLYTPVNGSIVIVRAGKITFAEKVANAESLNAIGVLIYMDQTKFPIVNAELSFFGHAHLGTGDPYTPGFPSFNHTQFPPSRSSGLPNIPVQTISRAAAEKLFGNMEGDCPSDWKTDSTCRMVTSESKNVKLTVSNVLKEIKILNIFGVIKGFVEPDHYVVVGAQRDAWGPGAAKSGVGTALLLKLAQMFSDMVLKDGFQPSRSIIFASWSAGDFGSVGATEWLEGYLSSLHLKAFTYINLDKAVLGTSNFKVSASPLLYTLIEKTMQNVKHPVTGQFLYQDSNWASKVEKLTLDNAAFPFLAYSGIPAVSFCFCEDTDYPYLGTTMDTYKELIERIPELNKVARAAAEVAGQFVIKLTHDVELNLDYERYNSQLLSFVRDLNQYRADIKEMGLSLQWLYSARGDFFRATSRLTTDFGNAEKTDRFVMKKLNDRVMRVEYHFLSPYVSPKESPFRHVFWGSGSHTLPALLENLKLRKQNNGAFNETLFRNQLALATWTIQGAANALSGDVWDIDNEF

[7] = molecular target: T5, cyno TfR extracellular domain (analogous construct to human TfR ecd) (cynomolgus monkey, UniProt Q5RDH6 87-760 (Pongo abelii entry)); assay: ELISA, IgG;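 also: ELISA of IgG-containing supernatants tested in 1:5 serial dilutions for 1 h, bound antibody read out with HRP anti-kappa antibody and TMB substrate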
T5 construct: also called cynoTfR ecd
T5 chain: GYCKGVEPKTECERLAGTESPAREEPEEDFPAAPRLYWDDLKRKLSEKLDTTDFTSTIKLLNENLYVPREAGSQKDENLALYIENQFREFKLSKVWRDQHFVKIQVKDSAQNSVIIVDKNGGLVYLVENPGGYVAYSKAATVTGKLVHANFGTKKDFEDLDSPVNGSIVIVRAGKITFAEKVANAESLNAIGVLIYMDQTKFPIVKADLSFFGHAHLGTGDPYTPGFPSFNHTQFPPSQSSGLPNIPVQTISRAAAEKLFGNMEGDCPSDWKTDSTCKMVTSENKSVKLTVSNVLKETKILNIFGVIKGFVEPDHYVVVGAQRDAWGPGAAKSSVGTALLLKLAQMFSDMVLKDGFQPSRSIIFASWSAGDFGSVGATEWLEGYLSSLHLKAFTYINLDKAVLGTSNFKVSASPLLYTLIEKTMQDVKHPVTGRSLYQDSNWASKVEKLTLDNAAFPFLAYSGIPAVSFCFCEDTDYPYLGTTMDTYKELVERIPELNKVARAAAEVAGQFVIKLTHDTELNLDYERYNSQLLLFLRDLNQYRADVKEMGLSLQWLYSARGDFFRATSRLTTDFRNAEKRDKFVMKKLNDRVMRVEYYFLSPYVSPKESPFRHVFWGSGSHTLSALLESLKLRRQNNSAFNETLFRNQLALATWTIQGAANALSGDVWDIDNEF

[8] = molecular target: T3, BACE1 in primary mouse cortical neurons; assay: cell-based or functional assay; remark: listed apart in the source
[9] = molecular target: T1, human BACE1 ECD; assay: Octet, pH 7.5; remark: listed apart in the source;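 also: antibodies captured on anti-human capture biosensor tips, dissociation followed in PBS with BSA buffer, kinetics fitted with a one-to-one binding model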
[10] = molecular target: T2, murine BACE1 ECD; assay: Octet, pH 7.5; remark: listed apart in the source;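 also: antibodies captured on anti-human capture biosensor tips, dissociation followed in PBS with BSA buffer, kinetics fitted with a one-to-one binding model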
[11] = molecular target: BACE1 (HTRF long substrate and FRET short substrate assays of Example 9D); assay: cell-based or functional assay
[12] = molecular target: T6, human BACE1 (R&D Systems) (human, UniProt P56817); assay: SPR (Biacore)
T6 construct: recombinant, commercial (R&D Systems)
T6 sequence (P56817 22-457 limits assumed): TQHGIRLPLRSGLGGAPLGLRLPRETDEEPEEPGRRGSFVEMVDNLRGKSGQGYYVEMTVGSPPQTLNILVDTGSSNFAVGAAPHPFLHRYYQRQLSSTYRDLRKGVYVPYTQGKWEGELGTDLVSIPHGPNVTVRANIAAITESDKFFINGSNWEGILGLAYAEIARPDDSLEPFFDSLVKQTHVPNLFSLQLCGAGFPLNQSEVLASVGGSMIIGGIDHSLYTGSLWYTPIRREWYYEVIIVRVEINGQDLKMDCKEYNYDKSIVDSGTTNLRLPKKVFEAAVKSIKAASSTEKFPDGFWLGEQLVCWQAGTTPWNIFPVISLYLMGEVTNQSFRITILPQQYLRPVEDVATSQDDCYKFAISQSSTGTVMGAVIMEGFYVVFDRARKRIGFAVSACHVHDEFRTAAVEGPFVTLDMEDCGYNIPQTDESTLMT

[13] = molecular target: T1, human BACE1 ECD; assay: cell-based or functional assay
[14] = molecular target: T2, murine BACE1 ECD; assay: cell-based or functional assay

Kd [1]: 0.87 nM
Kd [2]: 0.65 nM
maximal % inhibition of Abeta x-40 [3]: 73%
Kd [4]: 0.68 nM
Kd [5]: 0.81 nM
B2: 5985 (antibody, V domains shown)
VH: QLQLQESGPGLVKPSETLSLTCTVSGGSISSSSYYWGWIRQPPGKGLEWIGNIYYSGSTYYNPSLKSRVTISVDTSKNQFSLKLSSVTAADTAVYYCARLGHGYNYFDLWGRGTLVTVSS
VL: EIVLTQSPATLSLSPGERATLSCRASQSVSSYLAWFQQKPGQAPRLLIYDASNRATGIPARFSGSGSGTDFTLTISSLEPEDFAVYYCQQVYVWPPRTFGGGTKVEIK
notes: anti-BACE1 IgG

Kd [1]: 0.32 nM
Kd [2]: < 0.24 nM
IC50, Abeta x-40 in mouse cortical neurons [3]: 3.6 nM
maximal % inhibition of Abeta x-40 [3]: 67%
Kd [4]: < 0.2 nM
Kd [5]: < 0.24 nM
B3: 5933 (antibody, V domains shown)
VH: QLQLQESGPGLVKPSETLSLTCTVSGGSISRGSYYWGWIRQPPGKGLEWIGMIYYSGSTWYNPSLKSRVTISVDTSKNQFSLKLSSVTAADTAVYYCARVGHGVSYFDLWGRGTLVTVSS
VL: EIVLTQSPATLSLSPGERATLSCRASQSVSSYLAWYQQKPGQAPRLLIYGASKRATGIPARFSGSGSGTDFTLTISSLEPEDFAVYYCQQVYTWPPRTFGGGTKVEIK
notes: anti-BACE1 IgG

EC50 [6]: 0.0113 µg/mL
EC50 [7]: 0.0163 µg/mL
B7: S91A (antibody, V domains shown)
VH: EVQLVQSGAEVKKPGASVKVSCKGSGYTFTDYAMHWVRQAPGQGLEWMGGISTYFGRTNYNQKFKGRVTMTVDTSISTAYMELSRLRSDDTAVYYCARGLSGNYVMDYWGQGTTVTVSS
VL: DIVMTQSPDSLAVSLGERATINCRASESVDSYGNSFMHWYQQKPGQPPKLLIYRASNLESGVPDRFSGSGSRTDFTLTISSLQAEDVAVYYCQQANEAPPTFGQGTKLEIK
notes: also called 7A4.v15 S91A (CDR-L3) IgG

EC50 [6]: 0.012 µg/mL
EC50 [7]: 0.0226 µg/mL
B9: T97A (antibody, V domains shown)
VH: EVQLVQSGAEVKKPGASVKVSCKGSGYTFTDYAMHWVRQAPGQGLEWMGGISTYFGRTNYNQKFKGRVTMTVDTSISTAYMELSRLRSDDTAVYYCARGLSGNYVMDYWGQGTTVTVSS
VL: DIVMTQSPDSLAVSLGERATINCRASESVDSYGNSFMHWYQQKPGQPPKLLIYRASNLESGVPDRFSGSGSRTDFTLTISSLQAEDVAVYYCQQSNEAPPAFGQGTKLEIK
notes: also called 7A4.v15 T97A (CDR-L3) IgG

IC50, Abeta x-40 in mouse cortical neurons [8]: 17.6 nM
maximal % inhibition of Abeta x-40 [8]: 45%
Kd [9]: 79 nM
Kd [10]: 110 nM
EC50, HTRF long substrate [11]: 0.694 nM
Kd [12]: 30.5 nM
% inhibition of BACE1 activity, short FRET substrate [13]: 42%
% inhibition of BACE1 activity, short FRET substrate [14]: 23%
B11: 5539 (antibody, V domains shown)
VH: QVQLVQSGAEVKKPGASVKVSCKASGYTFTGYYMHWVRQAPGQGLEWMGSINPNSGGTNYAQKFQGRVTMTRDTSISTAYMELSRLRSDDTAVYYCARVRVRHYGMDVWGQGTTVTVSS
VL: DIQMTQSPSSLSASVGDRVTITCRASQSISSYLNWYQQKPGKAPKLLIYAASSLQSGVPSRFSGSGSGTDFTLTISSLQPEDFATYYCQQPLSHPRTFGGGTKVEIK
notes: anti-BACE1 IgG

Kd [9]: 78 nM
Kd [10]: 51 nM
EC50, FRET short substrate [11]: 9.72 nM
EC50, HTRF long substrate [11]: 172 nM
Kd [12]: 81.8 nM
% inhibition of BACE1 activity, short FRET substrate [13]: 44%
% inhibition of BACE1 activity, short FRET substrate [14]: 34%
B13: 5583 (antibody, V domains shown)
VH: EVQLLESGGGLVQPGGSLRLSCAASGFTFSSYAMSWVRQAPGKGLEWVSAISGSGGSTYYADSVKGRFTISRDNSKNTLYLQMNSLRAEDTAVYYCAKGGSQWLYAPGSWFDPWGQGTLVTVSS
VL: EIVLTQSPATLSLSPGERATLSCRASQSVSSYLAWYQQKPGQAPRLLIYDASNRATGIPARFSGSGSGTDFTLTISSLEPEDFAVYYCVQRSNFPWTFGGGTKVEIK
notes: anti-BACE1 IgG

Second part, the binder before the results:

B1: 5931 (antibody, V domains shown)
VH: QLQLQESGPGLVKPSETLSLTCTVSGGSISWSSYYWSWIRQPPGKGLEWIGSIYRSGRTYYNPSLKGRVTISVDTSKNQFSLKLSSVTAADTAVYYCARVGHGINYFDLWGRGTLVTVSS
VL: EIVLTQSPATLSLSPGERATLSCRASQSVSSYLAWYQQKPGQAPRLLIYDASKRATGIPARFSGSGSGTDFTLTISSLEPEDFAVYYCQQVYTWPPRTFGGGTKVEIK
notes: anti-BACE1 IgG
Kd [1]: < 0.22 nM
Kd [2]: < 0.23 nM
IC50, Abeta x-40 in mouse cortical neurons [3]: 0.91 nM
maximal % inhibition of Abeta x-40 [3]: 69%
Kd [4]: < 0.22 nM
Kd [5]: < 0.28 nM

B4: 5932 (antibody, V domains shown)
VH: QLQLQESGPGLVKPSETLSLTCTVSGGSISRGSYYWGWIRQPPGKGLEWIGMIYYSGSTWYNPSLKSRVTISVDTSKNQFSLKLSSVTAADTAVYYCARVGHGISYFDLWGRGTLVTVSS
VL: EIVLTQSPATLSLSPGERATLSCRASQSVSSYLAWYQQKPGQAPRLLIYDASKRATGIPARFSGSGSGTDFTLTISSLEPEDFAVYYCQQVYTWPPRTFGGGTKVEIK
notes: anti-BACE1 IgG
Kd [1]: 0.31 nM
Kd [2]: < 0.3 nM
IC50, Abeta x-40 in mouse cortical neurons [3]: 6.26 nM
maximal % inhibition of Abeta x-40 [3]: 57%
Kd [4]: < 0.23 nM
Kd [5]: < 0.3 nM

B5: 5982 (antibody, V domains shown)
VH: QLQLQESGPGLVKPSETLSLTCTVSGGSISSSSYYWGWIRQPPGKGLEWIGNIYYSGSTYYNPSLKSRVTISVDTSKNQFSLKLSSVTAADTAVYYCARLGHGYSYFDLWGRGTLVTVSS
VL: EIVLTQSPATLSLSPGERATLSCRASQSVSSYLAWFQQKPGQAPRLLIYDASNRATGIPARFSGSGSGTDFTLTISSLEPEDFAVYYCQQVYVWPPRTFGGGTKVEIK
notes: anti-BACE1 IgG
Kd [1]: 2.9 nM
Kd [2]: 2 nM
IC50, Abeta x-40 in mouse cortical neurons [3]: 27.3 nM
maximal % inhibition of Abeta x-40 [3]: 71%
Kd [4]: 2.3 nM
Kd [5]: 2.3 nM

B6: 5984 (antibody, V domains shown)
VH: QLQLQESGPGLVKPSETLSLTCTVSGGSISSSSYYWGWIRQPPGKGLEWIGNIYYSGSTYYNPSLKGRVTISVDTSKNQFSLKLSSVTAADTAVYYCARLGHGYNYFDLWGRGTLVTVSS
VL: EIVLTQSPATLSLSPGERATLSCRASQSVSSYLAWFQQKPGQAPRLLIYDASNRATGIPARFSGSGSGTDFTLTISSLEPEDFAVYYCQQVYVWPPRTFGGGTKVEIK
notes: anti-BACE1 IgG
Kd [1]: 0.43 nM
Kd [2]: 0.36 nM
IC50, Abeta x-40 in mouse cortical neurons [3]: 22.6 nM
maximal % inhibition of Abeta x-40 [3]: 70%
Kd [4]: 0.34 nM
Kd [5]: 0.37 nM

B8: Y102A (antibody, V domains shown)
VH: EVQLVQSGAEVKKPGASVKVSCKGSGYTFTDYAMHWVRQAPGQGLEWMGGISTYFGRTNYNQKFKGRVTMTVDTSISTAYMELSRLRSDDTAVYYCARGLSGNYVMDAWGQGTTVTVSS
VL: DIVMTQSPDSLAVSLGERATINCRASESVDSYGNSFMHWYQQKPGQPPKLLIYRASNLESGVPDRFSGSGSRTDFTLTISSLQAEDVAVYYCQQSNEAPPTFGQGTKLEIK
notes: also called 7A4.v15 Y102A (CDR-H3) IgG; copies: 2 + 2
EC50 [6]: 0.0126 µg/mL
EC50 [7]: 0.0178 µg/mL

B10: Y100A (antibody, V domains shown)
VH: EVQLVQSGAEVKKPGASVKVSCKGSGYTFTDYAMHWVRQAPGQGLEWMGGISTYFGRTNYNQKFKGRVTMTVDTSISTAYMELSRLRSDDTAVYYCARGLSGNAVMDYWGQGTTVTVSS
VL: DIVMTQSPDSLAVSLGERATINCRASESVDSYGNSFMHWYQQKPGQPPKLLIYRASNLESGVPDRFSGSGSRTDFTLTISSLQAEDVAVYYCQQSNEAPPTFGQGTKLEIK
notes: also called 7A4.v15 Y100A (CDR-H3) IgG; copies: 2 + 2
EC50 [6]: 0.0159 µg/mL
EC50 [7]: 0.024 µg/mL

B12: 5532 (antibody, V domains shown)
VH: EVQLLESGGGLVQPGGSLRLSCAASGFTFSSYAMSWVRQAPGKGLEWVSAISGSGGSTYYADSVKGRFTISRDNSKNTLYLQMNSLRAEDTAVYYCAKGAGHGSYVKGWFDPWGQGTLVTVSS
VL: EIVLTQSPATLSLSPGERATLSCRASQSVSSYLAWYQQKPGQAPRLLIYDASNRATGIPARFSGSGSGTDFTLTISSLEPEDFAVYYCQQSSNFPFTFGGGTKVEIK
notes: anti-BACE1 IgG
Kd [9]: 76 nM
Kd [10]: 48 nM
EC50, FRET short substrate [11]: 52.3 nM
EC50, HTRF long substrate [11]: 104 nM
Kd [12]: 130 nM
% inhibition of BACE1 activity, short FRET substrate [13]: 56%
% inhibition of BACE1 activity, short FRET substrate [14]: 50%

B14: 5592 (antibody, V domains shown)
VH: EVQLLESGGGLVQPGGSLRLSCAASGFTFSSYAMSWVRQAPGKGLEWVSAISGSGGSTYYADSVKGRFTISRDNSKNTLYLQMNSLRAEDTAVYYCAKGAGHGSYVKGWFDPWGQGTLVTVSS
VL: EIVLTQSPATLSLSPGERATLSCRASQSVSSYLAWYQQKPGQAPRLLIYDASNRATGIPARFSGSGSGTDFTLTISSLEPEDFAVYYCQQSVNFPFTFGGGTKVEIK
notes: anti-BACE1 IgG
Kd [9]: 59 nM
Kd [10]: 38 nM
EC50, FRET short substrate [11]: 95.9 nM
EC50, HTRF long substrate [11]: 189 nM
Kd [12]: 105 nM
% inhibition of BACE1 activity, short FRET substrate [13]: 63%
% inhibition of BACE1 activity, short FRET substrate [14]: 60%
